Literature values in article PMC11409674, “Raffinocyclicin is a novel plasmid-encoded circular bacteriocin produced by Lactococcus raffinolactis with broad-spectrum activity against many gram-positive food pathogens” (Applied and environmental microbiology, 2024).

Experiments:
[1] = test system: proteases; set-up: method as in 4 sources, ref 33 = [33]; PMID 21948835; doi:10.1128/AEM.06348-11; 33 Masuda Y Ono H Kitagawa H Ito H Mu F Sawa N Zendo T Sonomoto K Identification and characterization of leucocyclicin Q, a novel cyclic bacteriocin produced by Leuconostoc mesenteroides TK41401 Appl ||| ref 27 = [27]; PMID 21057028; doi:10.1128/AEM.01173-10; 27 Borrero J Brede DA Skaugen M Diep DB Herranz C Nes IF Cintas LM Hernández PE Characterization of garvicin ML, a novel circular bacteriocin produced by Lactococcus garvieae DCC43, isolated from mall ||| ref 30 = [30]; PMID 29177092; doi:10.1099/mgen.0.000134; 30 van Heel AJ Montalban-Lopez M Oliveau Q Kuipers OP Genome-guided identification of novel head-to-tail cyclized antimicrobial peptides, exemplified by the discovery of pumilarin Microb Genom 2017 3 ||| ref 29 = [29]; PMID 18552180; doi:10.1128/AEM.00817-08; 29 Martin-Visscher LA van Belkum MJ Garneau-Tsodikova S Whittal RM Zheng J McMullen LM Vederas JC Isolation and characterization of carnocyclin A, a novel circular bacteriocin produced by Carnobacteri; details: cited from earlier work
[2] = test system: L. lactis; set-up: method as in 7 sources, ref 29 = [29]; PMID 18552180; doi:10.1128/AEM.00817-08; 29 Martin-Visscher LA van Belkum MJ Garneau-Tsodikova S Whittal RM Zheng J McMullen LM Vederas JC Isolation and characterization of carnocyclin A, a novel circular bacteriocin produced by Carnobacteri ||| ref 30 = [30]; PMID 29177092; doi:10.1099/mgen.0.000134; 30 van Heel AJ Montalban-Lopez M Oliveau Q Kuipers OP Genome-guided identification of novel head-to-tail cyclized antimicrobial peptides, exemplified by the discovery of pumilarin Microb Genom 2017 3 ||| ref 31 = [31]; PMID 29030449; doi:10.1128/AEM.01801-17; 31 Borrero J Kelly E O’Connor PM Kelleher P Scully C Cotter PD Mahony J van Sinderen D Plantaricyclin a, a novel circular bacteriocin produced by Lactobacillus plantarum NI326: purification, character ||| ref 32 = [32]; PMID 17464077; doi:10.1099/mic.0.2006/005967-0; 32 Wirawan RE Swanson KM Kleffmann T Jack RW Tagg JR Uberolysin: a novel cyclic bacteriocin produced by Streptococcus uberis Microbiology 2007 153 1619 1630 10.1099/mic.0.2006/005967-0 17464077 ||| ref 27 = [27]; PMID 21057028; doi:10.1128/AEM.01173-10; 27 Borrero J Brede DA Skaugen M Diep DB Herranz C Nes IF Cintas LM Hernández PE Characterization of garvicin ML, a novel circular bacteriocin produced by Lactococcus garvieae DCC43, isolated from mall ||| ...; details: five strains of L. lactis; cited from earlier work

Row | Substance | sensitivity to proteolytic activity [1] | inhibition of L. lactis strains tested [2]
1 | garvicin ML | resistant | 
2 | lactocyclicin Q | resistant | 
3 | plantaricyclin A |  | inhibited all five strains
